Experimental data published in the supplement of paper PMC12042874.
± gives the uncertainty stated by the source.

Assay: amyloid nucleation score (Sup35N fusion, yeast selection) (log enrichment); library NNK3; higher = more nucleation; inactive = no reads after selection
How it was run: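 On medium lacking adenine and uracil, psi-negative yeast expressing peptides of 20 random codons fused to Sup35N were grown 7 days at 30°C after a 24-hour induction with 100 μM copper sulfate. Illumina sequencing of input and output plasmid inserts gave the reads, and sequences under 100 input reads were excluded. The nucleation score is the DiMSum log enrichment of output over input reads, centred on the mode score of non-aggregating sequences.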

HIWVCHWRYYVIMLPRSAWI
amyloid nucleation score: inactive

HKILRSVGFGRILAYGLLDI
amyloid nucleation score: inactive

HKQCWYILVNVRLMSRSRRV
amyloid nucleation score: 0.818 ± 0.13

HLELDFNFSVLHTYCYFLAP
amyloid nucleation score: inactive

HLFSNTWYTK
amyloid nucleation score: inactive

HLIST
amyloid nucleation score: inactive

HLKCLGNKACEGRVITHVAD
amyloid nucleation score: inactive

HLKSVGVVYDWMSQWSLWCR
amyloid nucleation score: inactive

HLLELELVFSILRRLMYWPM
amyloid nucleation score: inactive

HLLIHANF
amyloid nucleation score: 1.25 ± 0.14

HLPKLLYATFKWSRYSSKFA
amyloid nucleation score: -0.172 ± 1.3

HLPRKLVRPRRF
amyloid nucleation score: -0.415 ± 1.2

HLRLYCHPMNFRWHRRYYEP
amyloid nucleation score: 0.249 ± 0.4

HLSFDIVV
amyloid nucleation score: inactive

HLSWNSLTDRNVLC
amyloid nucleation score: inactive

HLSYKSQLS
amyloid nucleation score: inactive

HLVAVWVSWGILYRSVHCRS
amyloid nucleation score: inactive

HLWVSVVNSTESSMTMA
amyloid nucleation score: inactive

HMGNKRLCYCSSR
amyloid nucleation score: -0.326 ± 0.87

HMLSNFGARVREYIAMFGRL
amyloid nucleation score: inactive

HMSVVSVFIRRMPNASSTRR
amyloid nucleation score: 0.562 ± 0.13

HMVSFAERTVSDVGTVNPGQ
amyloid nucleation score: inactive

HNCASCSVRVHDSQSEKIAT
amyloid nucleation score: inactive

HNLVSSSSTCCRRHPCMAG
amyloid nucleation score: inactive

HNNLLSCYLMAPVFHSMMSE
amyloid nucleation score: inactive

HNRLEAMFY
amyloid nucleation score: inactive

HNSRFPSF
amyloid nucleation score: 0.338 ± 0.58

HNYLRS
amyloid nucleation score: inactive

HPESCPGLGSLSGEPR
amyloid nucleation score: inactive

HPLDYTVGSVVMGV
amyloid nucleation score: inactive

HQISFSM
amyloid nucleation score: inactive

HRDETGVHAVALSKSVWYKW
amyloid nucleation score: -1.07 ± 1.1

HRDYFFRPTFL
amyloid nucleation score: inactive

HRIVSFYRNSWVPSIFVYED
amyloid nucleation score: inactive

HRKIRFGYSL
amyloid nucleation score: inactive

HRRLGRTFFCATLGLHLCDF
amyloid nucleation score: inactive

HRSNCDYDIQYVYIFFS
amyloid nucleation score: 2.36 ± 0.063

HRVIWSFSFVRSDFCFPYCA
amyloid nucleation score: inactive

HSCITFSLPCTFRQRFCLLS
amyloid nucleation score: inactive

HSELW
amyloid nucleation score: inactive

HSKFWFCLFRIFQVSGLFNR
amyloid nucleation score: inactive

HSLVSLWYGSRCIILSR
amyloid nucleation score: inactive

HSNVGCKFAIKYSLAFCGVK
amyloid nucleation score: inactive

HSRAVLTLLW
amyloid nucleation score: inactive

HSRTYFQSISGWISCLMSTL
amyloid nucleation score: 1.13 ± 0.11

HSSCGNEVFFDSSVGSNRIL
amyloid nucleation score: inactive

HSSGDTWLGRV
amyloid nucleation score: inactive

HSSSLLRLQPVVHYLLLNVD
amyloid nucleation score: inactive

HSVIPWDTISDTA
amyloid nucleation score: inactive

HSVIRRFNIPMELYHMWLIS
amyloid nucleation score: inactive

HSVIVVCVFSYELFEFHSAV
amyloid nucleation score: inactive

HTVVPNRVNSPCVWWLFFVW
amyloid nucleation score: 1.3 ± 0.11

HTWFNFVYEVRSNKLTP
amyloid nucleation score: inactive

HVAGTCAQLTLFKDIGLTYK
amyloid nucleation score: inactive

HVDPCWQKTFTMMLFWVFLR
amyloid nucleation score: inactive

HVFRLAWTMKLWEADTLS
amyloid nucleation score: inactive

HVKDVMQRNFRVMGSSSR
amyloid nucleation score: inactive

HVLKDARCDS
amyloid nucleation score: 0.181 ± 0.36

HVNNTKSSLVRLSVLMHSVS
amyloid nucleation score: inactive

HVTRLVFMNSRYVAKFVGRA
amyloid nucleation score: inactive

HWACNWI
amyloid nucleation score: inactive

HWHMIMIKCQLEFTKEVIRA
amyloid nucleation score: inactive

HWSFQTVIDYGHPKFF
amyloid nucleation score: 1.45 ± 0.15

HWTNHYNYCGRA
amyloid nucleation score: 1.19 ± 0.082

HYAVQYTNRYKGFKLHKQHN
amyloid nucleation score: inactive

HYPIRERNAFLLNNDVDLLA
amyloid nucleation score: inactive

HYRYGKHREKMLMSAIVWLS
amyloid nucleation score: inactive

HYWEVYLGTCLRAQDVQER
amyloid nucleation score: 1.57 ± 0.097

HYWVLSFLNETALIIEFWH
amyloid nucleation score: inactive

HYYVSTDLWSIMMYTILRPC
amyloid nucleation score: inactive

IAAIGLELYWFFIVSIWGY
amyloid nucleation score: inactive

IAARW
amyloid nucleation score: inactive

IADCVLIN
amyloid nucleation score: inactive

IAFTNLVKVCGLTGYA
amyloid nucleation score: inactive

IAGMCGRGWREPLVERSGKD
amyloid nucleation score: inactive

IAHVMYNYQHVTSCNMSSVL
amyloid nucleation score: 0.726 ± 0.13

IALSGRYRDSAACRDSCHVA
amyloid nucleation score: inactive

IAVDFRYCYDYGSNSSCRLA
amyloid nucleation score: 1.88 ± 0.11

ICDSDFRY
amyloid nucleation score: inactive
